Results taken from the supplement of paper PMC5998384.

Assays:
HeLa Kyoto [1] = test: solubility in G1/S (NP-40 vs SDS abundance) (log2 ratio); higher = more soluble; details: cell cycle stage: G1/S
HeLa Kyoto [2] = test: solubility change mitosis vs G1/S (difference of NP-40 vs SDS log2 ratios) (log2 ratio difference); higher = more soluble in mitosis
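Throughout, for solubility change mitosis vs G1/S (difference of NP-40 vs SDS log2 ratios): synchronized HeLa Kyoto cells (double thymidine block for G1/S, nocodazole release for mitosis), protein amounts in NP-40 versus SDS lysates quantified by mass spectrometry, three biological replicates.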
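Throughout, for solubility in G1/S (NP-40 vs SDS abundance): HeLa Kyoto cells arrested at G1/S by double thymidine block, proteins quantified by TMT10plex mass spectrometry in mild NP-40 versus SDS extracts, three biological replicates.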

Row | Sequence | solubility in G1/S (log2) (HeLa Kyoto [1]) | solubility change mitosis (log2) (HeLa Kyoto [2])
1 | MGRAVKVLQLFKTLHRTRQQVFKNDARALEAARIKINEEFKNNKSETSSKKIEELMKIGSDVELLLRTSVIQGIHTDHNTLKLVPRKDLLVENVPYCDAPTQKQ [LYRM7] | 0.581 | 0.302
2 | MEGSFSDGGALPEGLAEEAEPQGAAWSGDSGTVSQSHSSASGPWEDEGAEDGAPGRDLPLLRRAAAGYAACLLPGAGARPEVEALDASLEDLLTRVDEFVGMLDMLRGDSSHVVSEGVPRIHAKAAEMRRIYSRIDRLEAFVRMVGGRVARMEEQVTKAEAELGTFPRAFKKLLHTMNVPSLFSKSAPSRPQQAGYEAPVLFRTEDYFPCCSERPQL [BLOC1S4] | 0.477 | 0.323
3 | MYFLSGWPKRLLCPLGSPAEAPFHVQSDPQRAFFAVLAAARLSIWYSRPSVLIVTYKEPAKSSTQFGSYKQAEWRPDSTMIAVSTANGYILFFHITSTRGDKYLYEPVYPKGSPQMKGTPHFKEEQCAPALNLEMRKILDLQAPIMSLQSVLEDLLVATSDGLLHLIHWEGMTNGRKAINLCTVPFSVDLQSSRVGSFLGFTDVHIRDMEYCATLDGFAVVFNDGKVGFITPVSSRFTAEQLHGVWPQDVVDGTCVAVNNKYRLMAFGCVSGSVQVYTIDNSTGAMLLSHKLELTAKQYPDIWNKTGAVKLMRWSPDNSVVIVTWEYGGLSLWSVFGAQLICTLGGDFAYRSDGTKKDPLKINSMSWGAEGYHLWVISGFGSQNTEIESDLRSVVKQPSILLFQFIKSVLTVNPCMSNQEQVLLQGEDRLYLNCGEASQTQNPRSSSTHSEHKPSREKSPFADGGLESQGLSTLLGHRHWHVVQISSTYLESNWPIRFSAIDKLGQNIAVVGKFGFAHYSLLTKKWKLFGNITQEQNMIVTGGLAWWNDFMVLACYNINDRQEELRVYLRTSNLDNAFAHVTKAQAETLLLSVFQDMVIVFRADCSICLYSIERKSDGPNTTAGIQVLQEVSMSRYIPHPFLVVSVTLTSVSTENGITLKMPQQARGAESIMLNLAGQLIMMQRDRSGPQIREKDSNPNNQRKLLPFCPPVVLAQSVENVWTTCRANKQKRHLLEALWLSCGGAGMKVWLPLFPRDHRKPHSFLSQRIMLPFHINIYPLAVLFEDALVLGAVNDTLLYDSLYTRNNAREQLEVLFPFCVVERTSQIYLHHILRQLLVRNLGEQALLLAQSCATLPYFPHVLELMLHEVLEEEATSREPIPDPLLPTVAKFITEFPLFLQTVVHCARKTEYALWNYLFAAVGNPKDLFEECLMAQDLDTAASYLIILQNMEVPAVSRQHATLLFNTALEQGKWDLCRHMIRFLKAIGSGESETPPSTPTAQEPSSSGGFEFFRNRSISLSQSAENVPASKFSLQKTLSMPSGPSGKRWSKDSDCAENMYIDMMLWRHARRLLEDVRLKDLGCFAAQLGFELISWLCKERTRAARVDNFVIALKRLHKDFLWPLPIIPASSISSPFKNGKYRTVGEQLLKSQSADPFLNLEMDAGISNIQRSQSWLSNIGPTHHEIDTASSHGPQMQDAFLSPLSNKGDECSIGSATDLTESSSMVDGDWTMVDENFSTLSLTQSELEHISMELASKGPHKSQVQLRYLLHIFMEAGCLDWCIVIGLILRESSIINQILVITQSSEVDGEMLQNIKTGLHAVDRWASTDCPGYKPFLNIIKPQLQKLSEITEEQVQPDAFQPITMGKTPEQTSPRAEESRGSSSHGSIPQGEVGSSNMVSRKEEDTAQAEEEEPFQDGTYDCSVS [RIC1] | -0.168 | 0.129
4 | MDNAVDGLDKASIANSDGPTAGSQTPPFKRKGKLSTIGKIFKPWKWRKKKTSDKFRETSAVLERKISTRQSREELIRRGVLKELPDQDGDVTVNFENSNGHMIPIGEESTREENVVKSEEGNGSVSEKTPPLEEQAEDKKENTENHSETPAAPALPPSAPPKPRPKPKPKKSPVPPKGATAGASHKGDEVPPIKKNTKAPGKQAPVPPPKPASRNTTREAAGSSHSKKTTGSKASASPSTSSTSSRPKASKETVSSKAGTVGTTKGKRKTDKQPITSHLSSDTTTSGTSDLKGEPAETRVESFKLEQTVPGAEEQNTGKFKSMVPPPPVAPAPSPLAPPLPLEDQCITASDTPVVLVSVGADLPVSALDPSQLLWAEEPTNRTTLYSGTGLSVNRENAKCFTTKEELGKTVPQLLTPGLMGESSESFSASEDEGHREYQANDSDSDGPILYTDDEDEDEDEDGSGESALASKIRRRDTLAIKLGNRPSKKELEDKNILQRTSEEERQEIRQQIGTKLVRRLSQRPTTEELEQRNILKQKNEEEEQEAKMELKRRLSRKLSLRPTVAELQARRILRFNEYVEVTDSPDYDRRADKPWARLTPADKAAIRKELNEFKSTEMEVHEESRQFTRFHRP [PHACTR2] | 0.45 | -0.286
5 | MAWWKAWIEQEGVTVKSSSHFNPDPDAETLYKAMKGIGTNEQAIIDVLTKRSNTQRQQIAKSFKAQFGKDLTETLKSELSGKFERLIVALMYPPYRYEAKELHDAMKGLGTKEGVIIEILASRTKNQLREIMKAYEEDYGSSLEEDIQADTSGYLERILVCLLQGSRDDVSSFVDPALALQDAQDLYAAGEKIRGTDEMKFITILCTRSATHLLRVFEEYEKIANKSIEDSIKSETHGSLEEAMLTVVKCTQNLHSYFAERLYYAMKGAGTRDGTLIRNIVSRSEIDLNLIKCHFKKMYGKTLSSMIMEDTSGDYKNALLSLVGSDP [ANXA8L1] | 0.415 | -0.077
6 | MEPLKVEKFATAKRGNGLRAVTPLRPGELLFRSDPLAYTVCKGSRGVVCDRCLLGKEKLMRCSQCRVAKYCSAKCQKKAWPDHKRECKCLKSCKPRYPPDSVRLLGRVVFKLMDGAPSESEKLYSFYDLESNINKLTEDKKEGLRQLVMTFQHFMREEIQDASQLPPAFDLFEAFAKVICNSFTICNAEMQEVGVGLYPSISLLNHSCDPNCSIVFNGPHLLLRAVRDIEVGEELTICYLDMLMTSEERRKQLRDQYCFECDCFRCQTQDKDADMLTGDEQVWKEVQESLKKIEELKAHWKWEQVLAMCQAIISSNSERLPDINIYQLKVLDCAMDACINLGLLEEALFYGTRTMEPYRIFFPGSHPVRGVQVMKVGKLQLHQGMFPQAMKNLRLAFDIMRVTHGREHSLIEDLILLLEECDANIRAS [SMYD3] | -0.0441 | -0.167
7 | MGALARALLLPLLAQWLLRAAPELAPAPFTLPLRVAAATNRVVAPTPGPGTPAERHADGLALALEPALASPAGAANFLAMVDNLQGDSGRGYYLEMLIGTPPQKLQILVDTGSSNFAVAGTPHSYIDTYFDTERSSTYRSKGFDVTVKYTQGSWTGFVGEDLVTIPKGFNTSFLVNIATIFESENFFLPGIKWNGILGLAYATLAKPSSSLETFFDSLVTQANIPNVFSMQMCGAGLPVAGSGTNGGSLVLGGIEPSLYKGDIWYTPIKEEWYYQIEILKLEIGGQSLNLDCREYNADKAIVDSGTTLLRLPQKVFDAVVEAVARASLIPEFSDGFWTGSQLACWTNSETPWSYFPKISIYLRDENSSRSFRITILPQLYIQPMMGAGLNYECYRFGISPSTNALVIGATVMEGFYVIFDRAQKRVGFAASPCAEIAGAAVSEISGPFSTEDVASNCVPAQSLSEPILWIVSYALMSVCGAILLVLIVLLLLPFRCQRRPRDPEVVNDESSLVRHRWK [BACE2] | 0.0932 | 0.0177
8 | MPQKDPCQKQACEIQKCLQANSYMESKCQAVIQELRKCCAQYPKGRSVVCSGFEKEEEENLTRKSASK [CMC4] | -1.4 | 0.221
9 | MSGGEVVCSGWLRKSPPEKKLKRYAWKRRWFVLRSGRLTGDPDVLEYYKNDHAKKPIRIIDLNLCQQVDAGLTFNKKEFENSYIFDINTIDRIFYLVADSEEEMNKWVRCICDICGFNPTEEDPVKPPGSSLQAPADLPLAINTAPPSTQADSSSATLPPPYQLINVPPHLETLGIQEDPQDYLLLINCQSKKPEPTRTHADSAKSTSSETDCNDNVPSHKNPASSQSKHGMNGFFQQQMIYDSPPSRAPSASVDSSLYNLPRSYSHDVLPKVSPSSTEADGELYVFNTPSGTSSVETQMRHVSISYDIPPTPGNTYQIPRTFPEGTLGQTSKLDTIPDIPPPRPPKPHPAHDRSPVETCSIPRTASDTDSSYCIPTAGMSPSRSNTISTVDLNKLRKDASSQDCYDIPRAFPSDRSSSLEGFHNHFKVKNVLTVGSVSSEELDENYVPMNPNSPPRQHSSSFTEPIQEANYVPMTPGTFDFSSFGMQVPPPAHMGFRSSPKTPPRRPVPVADCEPPPVDRNLKPDRKVKPAPLEIKPLPEWEELQAPVRSPITRSFARDSSRFPMSPRPDSVHSTTSSSDSHDSEENYVPMNPNLSSEDPNLFGSNSLDGGSSPMIKPKGDKQVEYLDLDLDSGKSTPPRKQKSSGSGSSVADERVDYVVVDQQKTLALKSTREAWTDGRQSTESETPAKSVK [GAB1] | 0.368 | -0.296
10 | METMRAQRLQPGVGTSGRGTLRALRPGVTGAAAATATPPAGPPPAPPPPAPPPPPLLLSGAPGLPLPPGAAGSPAVLREAVEAVVRSFAKHTQGYGRVNVVEALQEFWQMKQSRGADLKNGALVVYEMVPSNSPPYVCYVTLPGGSCFGSFQFCPTKAEARRSAAKIALMNSVFNEHPSRRITDEFIEKSVSEALASFNGNREEADNPNTGIGAFRFMLESNKGKSMLEFQELMTVFQLLHWNGSLKAMRERQCSRQEVLAHYSHRALDDDIRHQMALDWVSREQSVPGALSRELASTERELDEARLAGKELRFHKEKKDILVLAAGQLGNMHSSNC [LIX1L] | 0.528 | -0.1
11 | MAEDEPDAKSPKTGGRAPPGGAEAGEPTTLLQRLRGTISKAVQNKVEGILQDVQKFSDNDKLYLYLQLPSGPTTGDKSSEPSTLSNEEYMYAYRWIRNHLEEHTDTCLPKQSVYDAYRKYCESLACCRPLSTANFGKIIREIFPDIKARRLGGRGQSKYCYSGIRRKTLVSMPPLPGLDLKGSESPEMGPEVTPAPRDELVEAACALTCDWAERILKRSFSSIVEVARFLLQQHLISARSAHAHVLKAMGLAEEDEHAPRERSSKPKNGLENPEGGAHKKPERLAQPPKDLEARTGAGPLARGERKKSVVESSAPGANNLQVNALVARLPLLLPRAPRSLIPPIPVSPPILAPRLSSGALKVATLPLSSRAGAPPAAVPIINMILPTVPALPGPGPGPGRAPPGGLTQPRGTENREVGIGGDQGPHDKGVKRTAEVPVSEASGQAPPAKAAKQDIEDTASDAKRKRGRPRKKSGGSGERNSTPLKSAAAMESAQSSRLPWETWGSGGEGNSAGGAERPGPMGEAEKGAVLAQGQGDGTVSKGGRGPGSQHTKEAEDKIPLVPSKVSVIKGSRSQKEAFPLAKGEVDTAPQGNKDLKEHVLQSSLSQEHKDPKATPP [RFX5] | 0.487 | -0.117
12 | MAAPVRLGRKRPLPACPNPLFVRWLTEWRDEATRSRRRTRFVFQKALRSLRRYPLPLRSGKEAKILQHFGDGLCRMLDERLQRHRTSGGDHAPDSPSGENSPAPQGRLAEVQDSSMPVPAQPKAGGSGSYWPARHSGARVILLVLYREHLNPNGHHFLTKEELLQRCAQKSPRVAPGSARPWPALRSLLHRNLVLRTHQPARYSLTPEGLELAQKLAESEGLSLLNVGIGPKEPPGEETAVPGAASAELASEAGVQQQPLELRPGEYRVLLCVDIGETRGGGHRPELLRELQRLHVTHTVRKLHVGDFVWVAQETNPRDPANPGELVLDHIVERKRLDDLCSSIIDGRFREQKFRLKRCGLERRVYLVEEHGSVHNLSLPESTLLQAVTNTQVIDGFFVKRTADIKESAAYLALLTRGLQRLYQGHTLRSRPWGTPGNPESGAMTSPNPLCSLLTFSDFNAGAIKNKAQSVREVFARQLMQVRGVSGEKAAALVDRYSTPASLLAAYDACATPKEQETLLSTIKCGRLQRNLGPALSRTLSQLYCSYGPLT [MUS81] | -0.347 | 0.243
